Results: article PMC4601075, “Specific binding of eukaryotic ORC to DNA replication origins depends on highly conserved basic residues” (Scientific Reports, 2015)

Legend:
ORC (ScORC, ORC hexamer) [1] = molecular target: T1, ORC (ScORC, ORC hexamer) (Saccharomyces cerevisiae, UniProt P54784+P54791); assay: nitrocellulose filter binding, Scatchard plot
T1 construct: gene ORC1; with Origin recognition complex subunit 2; Origin recognition complex subunit 3; Origin recognition complex subunit 5; Origin recognition complex subunit 6
T1 sequence (P54784 whole entry): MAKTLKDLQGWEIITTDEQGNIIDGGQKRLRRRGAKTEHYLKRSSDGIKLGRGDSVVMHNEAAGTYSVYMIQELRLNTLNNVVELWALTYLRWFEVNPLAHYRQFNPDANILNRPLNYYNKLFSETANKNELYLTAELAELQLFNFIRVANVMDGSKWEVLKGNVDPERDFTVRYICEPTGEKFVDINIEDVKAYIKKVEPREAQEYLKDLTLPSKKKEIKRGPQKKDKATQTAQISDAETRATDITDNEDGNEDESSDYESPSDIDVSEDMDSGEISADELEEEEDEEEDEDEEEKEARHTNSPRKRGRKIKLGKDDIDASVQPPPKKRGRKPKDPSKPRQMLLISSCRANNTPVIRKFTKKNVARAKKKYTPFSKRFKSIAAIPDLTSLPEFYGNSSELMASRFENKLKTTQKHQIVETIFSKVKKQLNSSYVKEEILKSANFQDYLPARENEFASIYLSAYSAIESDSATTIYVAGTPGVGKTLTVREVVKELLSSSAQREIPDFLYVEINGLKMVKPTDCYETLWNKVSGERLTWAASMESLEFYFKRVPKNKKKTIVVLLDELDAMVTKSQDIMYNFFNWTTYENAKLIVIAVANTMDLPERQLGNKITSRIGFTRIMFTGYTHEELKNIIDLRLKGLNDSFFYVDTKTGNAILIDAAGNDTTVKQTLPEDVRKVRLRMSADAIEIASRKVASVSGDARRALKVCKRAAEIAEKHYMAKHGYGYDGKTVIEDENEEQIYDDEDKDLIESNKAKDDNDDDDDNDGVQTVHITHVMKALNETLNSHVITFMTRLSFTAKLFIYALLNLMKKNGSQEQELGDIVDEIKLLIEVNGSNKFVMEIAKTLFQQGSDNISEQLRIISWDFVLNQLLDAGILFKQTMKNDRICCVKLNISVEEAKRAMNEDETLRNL
T1 sequence (P54791 whole entry): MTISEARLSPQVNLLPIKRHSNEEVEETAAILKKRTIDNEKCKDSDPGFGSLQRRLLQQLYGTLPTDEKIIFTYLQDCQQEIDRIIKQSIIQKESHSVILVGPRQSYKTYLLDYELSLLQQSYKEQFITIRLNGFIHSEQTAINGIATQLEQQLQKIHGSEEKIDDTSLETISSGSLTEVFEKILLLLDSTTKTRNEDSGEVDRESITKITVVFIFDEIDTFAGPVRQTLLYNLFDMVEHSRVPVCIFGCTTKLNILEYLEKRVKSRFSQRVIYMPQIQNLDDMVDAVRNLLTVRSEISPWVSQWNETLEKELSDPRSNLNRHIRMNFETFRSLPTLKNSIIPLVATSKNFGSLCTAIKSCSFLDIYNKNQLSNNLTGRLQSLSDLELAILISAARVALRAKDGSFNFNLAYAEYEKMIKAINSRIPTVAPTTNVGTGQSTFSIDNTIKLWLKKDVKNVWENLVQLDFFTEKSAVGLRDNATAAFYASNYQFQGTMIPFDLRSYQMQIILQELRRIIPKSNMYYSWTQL
T1 sequence (P32833 whole entry partner): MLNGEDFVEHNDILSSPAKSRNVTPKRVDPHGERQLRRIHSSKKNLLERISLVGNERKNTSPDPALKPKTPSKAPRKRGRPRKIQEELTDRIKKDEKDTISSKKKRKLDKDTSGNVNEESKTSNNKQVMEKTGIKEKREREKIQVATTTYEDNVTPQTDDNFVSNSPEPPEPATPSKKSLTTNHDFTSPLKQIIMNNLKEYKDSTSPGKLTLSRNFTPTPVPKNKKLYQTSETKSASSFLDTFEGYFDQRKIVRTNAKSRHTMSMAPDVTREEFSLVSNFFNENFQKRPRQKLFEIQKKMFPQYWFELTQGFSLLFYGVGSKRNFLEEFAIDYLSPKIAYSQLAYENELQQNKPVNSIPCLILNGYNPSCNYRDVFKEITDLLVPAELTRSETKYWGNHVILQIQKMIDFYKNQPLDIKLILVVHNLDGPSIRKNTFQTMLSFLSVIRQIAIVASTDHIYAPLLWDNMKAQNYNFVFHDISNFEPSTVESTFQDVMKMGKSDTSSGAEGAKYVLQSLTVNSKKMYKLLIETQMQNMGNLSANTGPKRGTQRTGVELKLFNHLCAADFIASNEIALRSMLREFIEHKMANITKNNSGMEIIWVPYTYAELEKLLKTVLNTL
T1 sequence (P54790 2-616 partner): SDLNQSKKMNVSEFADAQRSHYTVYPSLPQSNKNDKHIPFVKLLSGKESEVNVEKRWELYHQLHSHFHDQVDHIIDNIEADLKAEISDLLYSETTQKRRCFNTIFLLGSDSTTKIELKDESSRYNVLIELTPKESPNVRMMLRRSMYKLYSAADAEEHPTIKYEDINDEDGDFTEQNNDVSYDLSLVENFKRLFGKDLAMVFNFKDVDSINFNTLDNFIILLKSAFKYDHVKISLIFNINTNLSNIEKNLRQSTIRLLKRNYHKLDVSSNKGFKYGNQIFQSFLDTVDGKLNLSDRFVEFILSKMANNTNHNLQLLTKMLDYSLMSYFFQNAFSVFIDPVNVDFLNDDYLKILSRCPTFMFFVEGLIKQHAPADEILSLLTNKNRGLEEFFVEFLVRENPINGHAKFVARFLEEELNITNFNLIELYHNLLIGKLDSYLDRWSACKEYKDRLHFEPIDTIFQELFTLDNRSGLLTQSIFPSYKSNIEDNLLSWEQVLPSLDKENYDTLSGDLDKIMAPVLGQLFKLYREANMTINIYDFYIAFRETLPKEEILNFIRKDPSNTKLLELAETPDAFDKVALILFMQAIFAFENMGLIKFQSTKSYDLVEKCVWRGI
T1 sequence (P50874 whole entry partner): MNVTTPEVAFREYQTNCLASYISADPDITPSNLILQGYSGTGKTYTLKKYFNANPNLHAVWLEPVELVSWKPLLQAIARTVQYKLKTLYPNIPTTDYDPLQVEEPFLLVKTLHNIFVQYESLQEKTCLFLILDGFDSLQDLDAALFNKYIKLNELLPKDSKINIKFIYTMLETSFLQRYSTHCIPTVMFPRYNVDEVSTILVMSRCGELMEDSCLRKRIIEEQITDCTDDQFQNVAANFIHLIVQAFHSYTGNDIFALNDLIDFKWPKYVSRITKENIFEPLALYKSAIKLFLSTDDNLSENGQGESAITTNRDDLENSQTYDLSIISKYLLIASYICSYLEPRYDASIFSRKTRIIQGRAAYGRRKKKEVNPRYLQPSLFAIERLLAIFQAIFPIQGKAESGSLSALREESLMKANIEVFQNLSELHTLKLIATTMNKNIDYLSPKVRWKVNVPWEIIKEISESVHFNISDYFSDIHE
T1 sequence (P38826 whole entry partner): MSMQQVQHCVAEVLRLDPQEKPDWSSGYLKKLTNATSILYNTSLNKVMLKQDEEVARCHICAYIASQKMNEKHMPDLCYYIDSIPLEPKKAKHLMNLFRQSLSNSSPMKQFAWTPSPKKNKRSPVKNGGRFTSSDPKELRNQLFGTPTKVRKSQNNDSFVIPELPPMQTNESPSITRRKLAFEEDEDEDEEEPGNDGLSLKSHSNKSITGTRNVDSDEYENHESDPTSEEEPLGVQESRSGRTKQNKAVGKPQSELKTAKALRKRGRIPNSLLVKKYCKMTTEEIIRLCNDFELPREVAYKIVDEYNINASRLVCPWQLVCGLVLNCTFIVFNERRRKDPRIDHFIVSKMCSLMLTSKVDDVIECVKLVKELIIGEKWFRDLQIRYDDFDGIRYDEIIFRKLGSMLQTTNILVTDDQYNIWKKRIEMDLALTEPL
Excerpt: (§1) nitrocellulose filter binding, Scatchard plot on ORC (ScORC, ORC hexamer)

ORC (ScORC, ORC hexamer) [2] = molecular target: T2, ORC (ScORC, ORC hexamer) (Saccharomyces cerevisiae, UniProt P54784+P54791, P54784:K362A); assay: nitrocellulose filter binding, Scatchard plot
T2 construct: gene ORC1; with Origin recognition complex subunit 2; Origin recognition complex subunit 3; Origin recognition complex subunit 5; Origin recognition complex subunit 6
T2 sequence (P54784 whole entry K362A): as the sequence (P54784 whole entry) above, with K362A counted along it
T2 sequence (P54791 whole entry): as the sequence (P54791 whole entry) above
T2 sequence (P32833 whole entry partner): as the sequence (P32833 whole entry partner) above
T2 sequence (P54790 2-616 partner): as the sequence (P54790 2-616 partner) above
T2 sequence (P50874 whole entry partner): as the sequence (P50874 whole entry partner) above
T2 sequence (P38826 whole entry partner): as the sequence (P38826 whole entry partner) above
Excerpt: as §1

ORC (ScORC, ORC hexamer) [3] = molecular target: T3, ORC (ScORC, ORC hexamer) (Saccharomyces cerevisiae, UniProt P54784+P54791, P54784:R367A); assay: nitrocellulose filter binding, Scatchard plot
T3 construct: gene ORC1; with Origin recognition complex subunit 2; Origin recognition complex subunit 3; Origin recognition complex subunit 5; Origin recognition complex subunit 6
T3 sequence (P54784 whole entry R367A): as the sequence (P54784 whole entry) above, with R367A counted along it
T3 sequence (P54791 whole entry): as the sequence (P54791 whole entry) above
T3 sequence (P32833 whole entry partner): as the sequence (P32833 whole entry partner) above
T3 sequence (P54790 2-616 partner): as the sequence (P54790 2-616 partner) above
T3 sequence (P50874 whole entry partner): as the sequence (P50874 whole entry partner) above
T3 sequence (P38826 whole entry partner): as the sequence (P38826 whole entry partner) above
Excerpt: as §1

[4] = system: GH-Orc1 301-400 (Saccharomyces cerevisiae); assay: EMSA; details: competitor DNA; 25 mM HEPES-KOH pH 7.6, 100 mM K glutamate, 5 mM Mg acetate, 5 mM CaCl2, 5 mM DTT, 5% glycerol, 0.1% Triton X-100, 2 mg/ml BSA, 1 mM ATP; 1.6 nM dsDNA or 3 nM …; scale: fold lower affinity than ORC hexamer
[5] = molecular target: ORC-1K362A hexamer K362A (Saccharomyces cerevisiae) (UniProt P54784+P32833+P54790+P54791+P50874+P38826); assay: EMSA; details: 25 mM HEPES-KOH pH 7.6, 100 mM K glutamate, 5 mM Mg acetate, 5 mM CaCl2, 5 mM DTT, 5% glycerol, 0.1% Triton X-100, 2 mg/ml BSA, 1 mM ATP; 1.6 nM dsDNA or 3 nM …
[6] = molecular target: ORC-1R367A hexamer R367A (Saccharomyces cerevisiae) (UniProt P54784+P32833+P54790+P54791+P50874+P38826); assay: EMSA; details: 25 mM HEPES-KOH pH 7.6, 100 mM K glutamate, 5 mM Mg acetate, 5 mM CaCl2, 5 mM DTT, 5% glycerol, 0.1% Triton X-100, 2 mg/ml BSA, 1 mM ATP; 1.6 nM dsDNA or 3 nM …
ORC-1K362A hexamer = ORC-1K362A hexamer (Saccharomyces cerevisiae, UniProt P54784;P32833;P54790;P54791;P50874;P38826 1-914;1-620;1-616;1-529;1-479;1-435, K362A); assay: EMSA; 1 mM ATP, competitor dsDNA; 25 mM HEPES-KOH pH 7.6, 100 mM K glutamate, 5 mM Mg acetate, 5 mM CaCl2, 5 mM DTT, 5% glycerol, 0.1% Triton X-100, 2 mg/ml BSA, 1 mM ATP; 1.6 nM dsDNA or 3 nM ssDNA, 300 ng GC-rich competitor in 5 ul, 10 min, room temperature; details: protein: recombinant; tags: TEV-His on Orc1; copies: 1;1;1;1;1;1; label: 3' Cy5-ddUTP (terminal transferase)
ORC-1R367A hexamer = ORC-1R367A hexamer (Saccharomyces cerevisiae, UniProt P54784;P32833;P54790;P54791;P50874;P38826 1-914;1-620;1-616;1-529;1-479;1-435, R367A); assay: as above; details: protein: recombinant; tags: TEV-His on Orc1; copies: 1;1;1;1;1;1; label: 3' Cy5-ddUTP (terminal transferase)
[7] = molecular target: ORC hexamer wild-type (Orc1-TEV-His/Orc2/3/4/5/6) (Saccharomyces cerevisiae, UniProt P54784;P32833;P54790;P54791;P50874;P38826 1-914;1-620;1-616;1-529;1-479;1-435); assay: as above; details: protein: recombinant; tags: TEV-His on Orc1 (C-terminal by name); copies: 1;1;1;1;1;1; label: 3' Cy5-ddUTP (terminal transferase)
[8] = molecular target: T4, S. cerevisiae origin recognition complex (ORC) hexamer, wild type (S. cerevisiae, UniProt P54784 1-914; P32833 1-620; P54790 1-616; P54791 1-529; P50874 1-479; P38826 …); assay: native gel or EMSA; ORC and Cdc6 incubated with Cy5-labeled ARS1 DNA (1.6 nM) and 300 ng GC-rich competitor, 10 min at room temperature, 25 mM HEPES-KOH pH 7.6, 100 mM potassium glutamate, 1 mM ATP; Cdc6-dependent supershift of the ORC-ARS1 complex on a 4% polyacrylamide gel; details: both partners purified
T4 construct: Orc1, largest subunit of the S. cerevisiae origin recognition complex; expressed from ORC1-TEV-His; Orc2, subunit of the S. cerevisiae origin recognition complex; Orc3, subunit of the S. cerevisiae origin recognition complex; Orc4, subunit of the S. cerevisiae origin recognition complex; Orc5, subunit of the S. cerevisiae origin recognition complex; Orc6, subunit of the S. cerevisiae origin …

Work on `Nc1ncnc2c1ncn2[C@@H]1O[C@H](COP(=O)(O)OP(=O)(O)OP(=O)(O)O)[C@@H](O)[C@H]1O` [ATP] yielded a Kd (ORC (ScORC, ORC hexamer) [1]) of 31 nM, a Kd (ORC (ScORC, ORC hexamer) [2]) of 35 nM and a Kd (ORC (ScORC, ORC hexamer) [3]) of 32 nM.

With ARS1 wild-type fragment the binding signal [4] was over 100.

For “CCCACATGTCAATTTAGTATATTACTGTATATCTAGTTCATTCTTCAAAATAAAGAATGCATAACCATTTTTTTATGTTTTTTCCGGAATTGGCTAAATTCACAAAAAAAAAGAGCATAAAGCGAATTGAATTGTCTCGCCAAGAAAACGCACTGAGAGGACGATTGATCCTCCAGACAAGATCGGAATTTTTACTTTTCTGTTTTTAACGACGTCGG (double strand) [ARS609 fragment]”, the binding [5] was “binds more weakly” and the binding [6] was “binds more weakly”.

With “CCGACGTCAGATCTTAATTTATCTCATGAAGTAATGATACCTCAGCGATGTGCTCGCTCGTTAGTATGCTTCATAAATTCATTATTATTTTTTTTTGGAAGTGTTTTTCGACAAAAGTTGCATTTTTACGAAGGATATGTAAACTCAAGAAGTACTAAATAAATATAAATACAATTCGAAAATTTGAAAAAAGTAGGAGACAACACTTTCCTTCCTCACGAAGAAGTTAAGCTTACATGTGGG (double strand) [ARS306 fragment]” the binding [5] was “binds more weakly” and the binding [6] was “binds more weakly”.

GTTACCATGGCATCGAGTTCTTCAACAAGACTACAATGG (ssDNA) [DL11]: binds (ORC-1K362A hexamer); binds (ORC-1R367A hexamer); binds [7].

B1: ScCdc6 (natural protein, S. cerevisiae, UniProt P09119 1-513, looked up)
chain: MSAIPITPTKRIRRNLFDDAPATPPRPLKRKKLQFTDVTPESSPEKLQFGSQSIFLRTKALLQKSSELVNLNSSDGALPARTAEYEQVMNFLAKAISEHRSDSLYITGPPGTGKTAQLDMIIRQKFQSLPLSLSTPRSKDVLRHTNPNLQNLSWFELPDGRLESVAVTSINCISLGEPSSIFQKIFDSFQDLNGPTLQIKNMQHLQKFLEPYHKKTTFVVVLDEMDRLLHANTSETQSVRTILELFLLAKLPTVSFVLIGMANSLDMKDRFLSRLNLDRGLLPQTIVFQPYTAEQMYEIVIQKMSSLPTIIFQPMAIKFAAKKCAGNTGDLRKLFDVLRGSIEIYELEKRFLLSPTRGSLNSAQVPLTPTTSPVKKSYPEPQGKIGLNYIAKVFSKFVNNNSTRTRIAKLNIQQKLILCTIIQSLKLNSDATIDESFDHYIKAITKTDTLAPLQRNEFLEICTILETCGLVSIKKTKCKGKTKRFVDKIDVDLDMREFYDEMTKISILKPFLH
notes: Cdc6 of S. cerevisiae; source: E. coli, overexpressed and purified
B1: binds [8].
